The target in one test is T1, human CD14 (human, UniProt P08571 20-345).
T1 construct: whole, on cells; also called CD14 on human monocytes
T1 sequence (looked up): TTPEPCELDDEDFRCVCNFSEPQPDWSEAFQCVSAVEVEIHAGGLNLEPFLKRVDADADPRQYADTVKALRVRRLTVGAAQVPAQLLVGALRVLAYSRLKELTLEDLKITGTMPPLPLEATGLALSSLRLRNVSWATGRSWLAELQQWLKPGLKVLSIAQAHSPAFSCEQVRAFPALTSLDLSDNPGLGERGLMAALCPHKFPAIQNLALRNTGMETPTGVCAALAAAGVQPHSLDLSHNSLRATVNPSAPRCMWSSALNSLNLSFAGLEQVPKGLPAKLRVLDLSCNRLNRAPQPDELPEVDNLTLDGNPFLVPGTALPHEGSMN
The test can be described thus: flow cytometry, human whole blood, displacement of 18D11 mIgG1 from monocytes. (In flow cytometry, cells or beads pass a laser one at a time.)

For test [1], the target named is T2, human C1q (hC1q), biotinylated (human, UniProt P02745 23-245; P02746 28-253; P02747 29-245, biotinylated).
T2 construct: also called complement component C1q
As to the kind of experiment: ELISA, coated Ab, biotinylated hC1q. Here is the method:
(§1) Ninety-six-well plates (Nunc, Roskilde, Denmark) were coated with serial dilution of the Abs (6.0-0.09 mg/ml) and incubated overnight at 4° C. followed by washing three times with PBS/Tween (pH 7.4). The wells were blocked with 4% skimmed milk (Neogen Europe, Auchincruive, U.K.) for 1 h at room temperature and then washed in PBS/Tween (pH 6.0). Purified hFcRn-GST or pFcRn-GST (1 mg/ml) were diluted in 4% skimmed milk in PBS/Tween (pH 6.0) and preincubated with an HRP-conjugated anti-GST Ab (GE Healthcare U.K., Buckinghamshire, U.K.) diluted 1:5000 and added to the wells. The plates were incubated for 1 h at room temperature and washed with PBS/Tween (pH 6.0). Bound receptor was detected by adding 100 ml of 3,39,5,59-tetramethylbenzidine substrate (Calbiochem-Novabiochem, Nottingham, U.K.). The absorbance was measured at 450 nm using a Sunrise TECAN spectrophotometer. The assay described above was also performed using PBS/Tween (pH 7.4) in all steps. The same setup was used with GST-fused versions of hFcgRI, hFcgRIIa (allotype His131), hFcgRIIb, hFcgRIIIa (allotype Val158), and hFcgRIIIb (1 mg/ml each). In addition, a biotinylated human C1q (hC1 q; 4 mg/ml) preparation was incubated with the Abs and detected using ALP-conjugated streptavidin (GE Healthcare). Absorbance was measured at 405 nm.
In general terms: ELISA stands for enzyme-linked immunosorbent assay.

Test [2] has as its target T3, human FcgRIIIb ectodomains fused to GST (human; Schistosoma japonicum, UniProt O75015 17-200).
T3 construct: extracellular domain; also called hFcgRIIIb; not shown: Schistosoma japonicum GST
As to the kind of experiment: ELISA, coated Ab, GST-fused receptor. The method, then:
as §1

Test [3] deals with T4, human FcgRI ectodomains fused to GST (human; Schistosoma japonicum, UniProt P12314 16-292).
T4 construct: extracellular domain; also called hFcgRI; not shown: Schistosoma japonicum GST
The test can be described thus: ELISA, coated Ab, GST-fused receptor. Here is the method:
as §1

The target of test [4] is T5, human FcgRIIb ectodomains fused to GST (human; Schistosoma japonicum, UniProt P31994 43-217).
T5 construct: extracellular domain; also called hFcgRIIb; not shown: Schistosoma japonicum GST
T5 sequence (looked up): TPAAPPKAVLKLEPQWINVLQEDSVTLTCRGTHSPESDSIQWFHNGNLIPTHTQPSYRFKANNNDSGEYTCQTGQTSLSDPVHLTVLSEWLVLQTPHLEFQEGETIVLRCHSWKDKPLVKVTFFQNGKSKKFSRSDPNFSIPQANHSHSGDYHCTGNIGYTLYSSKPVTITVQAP
As to the kind of experiment: ELISA, coated Ab, GST-fused receptor. Here is the method:
as §1

The target of test [5] is T6, human FcgRIIIa (allotype Val158) ectodomains fused to GST (human; Schistosoma japonicum, UniProt P08637 17-208).
T6 construct: extracellular domain; also called hFcgRIIIa; not shown: Schistosoma japonicum GST
As to the kind of experiment: ELISA, coated Ab, GST-fused receptor. The method, then: as §1

T2 sequence (P02745 23-245 limits assumed, chain 1 of 3): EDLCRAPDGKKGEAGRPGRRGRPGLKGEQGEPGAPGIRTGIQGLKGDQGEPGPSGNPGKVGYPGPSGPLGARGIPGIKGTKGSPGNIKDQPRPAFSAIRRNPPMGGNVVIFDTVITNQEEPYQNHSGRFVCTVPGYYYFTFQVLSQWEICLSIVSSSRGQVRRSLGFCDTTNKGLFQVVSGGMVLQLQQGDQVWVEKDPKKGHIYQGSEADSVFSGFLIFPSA
T2 sequence (P02746 28-253 limits assumed, chain 2 of 3): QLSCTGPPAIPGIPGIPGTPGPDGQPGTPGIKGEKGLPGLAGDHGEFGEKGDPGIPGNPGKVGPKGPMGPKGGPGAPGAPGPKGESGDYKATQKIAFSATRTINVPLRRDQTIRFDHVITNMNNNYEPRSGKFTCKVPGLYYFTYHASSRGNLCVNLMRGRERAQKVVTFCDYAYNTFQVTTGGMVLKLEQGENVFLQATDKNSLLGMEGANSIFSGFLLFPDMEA
T2 sequence (P02747 29-245 limits assumed, chain 3 of 3): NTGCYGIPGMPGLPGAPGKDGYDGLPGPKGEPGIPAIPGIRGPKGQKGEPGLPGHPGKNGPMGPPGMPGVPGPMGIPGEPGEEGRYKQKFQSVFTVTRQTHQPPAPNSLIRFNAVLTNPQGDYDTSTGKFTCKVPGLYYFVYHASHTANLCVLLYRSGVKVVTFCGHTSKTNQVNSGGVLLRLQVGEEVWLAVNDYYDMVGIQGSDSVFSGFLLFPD
Description for human CD14: Fresh human or porcine whole blood was drawn into tubes containing the anticoagulants lepirudin (Refludan; Pharmion, Copenhagen, Denmark) or EDTA, respectively. […] Endotoxin-free Dulbecco phosphate buffered saline, PBS (Sigma-Aldrich), was used for diluting the Abs. […] Their binding was detected either by using a secondary PEconjugated anti-mouse IgG or through direct FITC fluorescence. Erythrocytes were lysed using FACS Lysing solution (BD Biosciences, Franklin Lakes, N.J.; human blood) or a solution of 0.16 M ammonium chloride, 10 mM sodium bicarbonate, 0.12 mM EDTA (Tritiplex III) and 0.04% (v/v) paraformaldehyde (porcine blood). In subsequent flow cytometry analyses, human monocyte and porcine granulocyte populations were selected based on the forward scatter-side scatter dot plot, and CD14 binding was recorded as mean or median fluorescence intensity, respectively.

B1: 18D11 IgG1 F(ab')2 (Diatec) (other)
VH: EVQLVESGGGLMQPKGSLKLSCAASGFTFKTYALNWVRQAPGTGLEWVARIRSKSNNYTTYYADSVKDRFTISRDDSQNMLYLQMNNLKTEDTAMYYCVRPQSGTSFAYWGQGTLVTVSAA
VL: NIVLTQSPASLAVSLGQRATISCRASESVDSYGNSFMHWYQQKPGQPPKLLIYLASNLESGVPARFSGSGSRTDFTLTIDPVEADDVATYYCQQNNGDPYTFGGGTKLEIIR
notes: F(ab')2 fragment of the mouse IgG1 clone 18D11, bought; also called 18D11 F(ab)92; F(ab9)2 18D11
On to B1, for which the binding result with human CD14 was “binds”.

B2: recombinant Mil2 (rMil2), recombinant anti-porcine CD14 IgG2/4 Ab (antibody)
heavy: QVRLQQPGAELVRPGASVKLSCKASGYTFTTYWMNWVKQRPEDGLEWIGRIDPYDSETHYNQNFKDKAILTVDKSSSTAYMQLSSLTYEDSAVYYCTRKEGRQWGAYFDYWGQGTTLTVSSASTKGPSVFPLAPCSRSTSESTAALGCLVKDYFPEPVTVSWNSGALTSGVHTFPAVLQSSGLYSLSSVVTVPSSNFGTQTYTCNVDHKPSNTKVDKTVERKCCVECPPCPAPPVAGPSVFLFPPKPKDTLMISRTPEVTCVVVDVSQEDPEVQFNWYVDGVEVHNAKTKPREEQFNSTYRVVSVLTVLHQDWLNGKEYKCKVSNKGLPSSIEKTISKAKGQPREPQVYTLPPSQEEMTKNQVSLTCLVKGFYPSDIAVEWESNGQPENNYKTTPPVLDSDGSFFLYSRLTVDKSRWQEGNVFSCSVMHEALHNHYTQKSLSLSLGK
light: DIVMTQSQKFMSTSVGDRVSVTCKASQYVGTNVAWYQQKPGQSPKALIQSASYRCSGVPDRFTGSGSGTDFTLTISNVQSEDLADYFCQQYNTYVTFGGGTKLELKRTVAAPSVFIFPPSDEQLKSGTASVVCLLNNFYPREAKVQWKVDNALQSGNSQESVTEQDSKDSTYSLSSTLTLSKADYEKHKVYACEVTHQGLSSPVTKSFNRGEC
notes: Mouse/human chimera with human IgG2/4 hybrid heavy constant region and human kappa
With B2, the binding result in test [1], in test [2], in test [3], in test [4] and in test [5] was “no binding” throughout.

B3: recombinant 18D11 (r18D11), recombinant anti-human CD14 IgG2/4 Ab (antibody)
heavy: EVQLVESGGGLMQPKGSLKLSCAASGFTFKTYALNWVRQAPGTGLEWVARIRSKSNNYTTYYADSVKDRFTISRDDSQNMLYLQMNNLKTEDTAMYYCVRPQSGTSFAYWGQGTLVTVSAASTKGPSVFPLAPCSRSTSESTAALGCLVKDYFPEPVTVSWNSGALTSGVHTFPAVLQSSGLYSLSSVVTVPSSNFGTQTYTCNVDHKPSNTKVDKTVERKCCVECPPCPAPPVAGPSVFLFPPKPKDTLMISRTPEVTCVVVDVSQEDPEVQFNWYVDGVEVHNAKTKPREEQFNSTYRVVSVLTVLHQDWLNGKEYKCKVSNKGLPSSIEKTISKAKGQPREPQVYTLPPSQEEMTKNQVSLTCLVKGFYPSDIAVEWESNGQPENNYKTTPPVLDSDGSFFLYSRLTVDKSRWQEGNVFSCSVMHEALHNHYTQKSLSLSLGK
light: NIVLTQSPASLAVSLGQRATISCRASESVDSYGNSFMHWYQQKPGQPPKLLIYLASNLESGVPARFSGSGSRTDFTLTIDPVEADDVATYYCQQNNGDPYTFGGGTKLEIIRTVAAPSVFIFPPSDEQLKSGTASVVCLLNNFYPREAKVQWKVDNALQSGNSQESVTEQDSKDSTYSLSSTLTLSKADYEKHKVYACEVTHQGLSSPVTKSFNRGEC
notes: Mouse/human chimera: murine variable regions, human IgG2/4 hybrid heavy constant region (CH1 and hinge from IgG2, CH2 and CH3 from IgG4), human kappa; Made in HEK293-EBNA cells; also called recombinant anti-human CD14 Ab
Take B3: the binding result in test [1], in test [2], in test [3], in test [4] and in test [5] was “no binding” throughout.

Values taken from patent publication US20170107294A1 (NORDLANDSSYKEHUSET HF, published 2017).
